Assay results taken from PMC2217592.

Experiments:
[1] = molecular target: TIRC7 (human (endogenous in PBL)) (UniProt Q13488)
[2] = molecular target: TIRC7 (human (endogenous in PBL)) (UniProt Q13488); remark: listed apart in the source

Sequence of UniProt Q13488 (Q13488 217-830): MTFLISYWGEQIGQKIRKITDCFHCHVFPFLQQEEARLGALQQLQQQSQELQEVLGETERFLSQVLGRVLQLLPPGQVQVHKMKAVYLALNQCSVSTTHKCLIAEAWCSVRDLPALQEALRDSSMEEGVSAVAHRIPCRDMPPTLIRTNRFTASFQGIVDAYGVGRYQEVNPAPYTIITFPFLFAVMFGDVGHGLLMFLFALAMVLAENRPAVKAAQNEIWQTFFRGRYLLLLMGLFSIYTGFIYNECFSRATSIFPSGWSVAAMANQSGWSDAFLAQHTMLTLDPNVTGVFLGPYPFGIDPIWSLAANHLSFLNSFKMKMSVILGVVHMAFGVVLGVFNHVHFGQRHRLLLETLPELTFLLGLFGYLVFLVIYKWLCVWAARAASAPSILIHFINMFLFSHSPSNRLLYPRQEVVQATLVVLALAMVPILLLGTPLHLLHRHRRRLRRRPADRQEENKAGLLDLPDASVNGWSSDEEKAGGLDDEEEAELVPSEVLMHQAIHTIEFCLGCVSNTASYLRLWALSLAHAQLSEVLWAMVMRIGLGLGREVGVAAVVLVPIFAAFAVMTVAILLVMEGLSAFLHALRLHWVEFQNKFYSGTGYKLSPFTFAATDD

cells in G0/G1 cell cycle phase, human PBL activated with anti-CD3/CD28 48 h with sHLA-DRα2 50 µg/ml (propidium iodine, flow cytometry) [1]: 89%
subdiploid (apoptotic) cells 72 h after incubation of activated human PBL with sHLA-DRα2 [1]: 46.4%
apoptosis (Annexin V) of human CD4+ cells stimulated 72 h with anti-CD3/CD28, sHLA-DRα2 50 µg/ml [2]: 51%
apoptosis (Annexin V) of human CD8+ cells stimulated 72 h with anti-CD3/CD28, sHLA-DRα2 50 µg/ml [2]: 54%
Substance: soluble HLA-DR alpha 2 fusion protein (entire human HLA-DR alpha 2 domain linked to an IgG1 Fc protein) (Fc fusion)
